Legend:
[1] = molecular target: T1, bacteriophage T7 ejection protein gp16 (internal virion protein), N-terminal 10x His-tagged, full-length (bacteriophage T7, UniProt P03726 1-1318)
T1 sequence (looked up): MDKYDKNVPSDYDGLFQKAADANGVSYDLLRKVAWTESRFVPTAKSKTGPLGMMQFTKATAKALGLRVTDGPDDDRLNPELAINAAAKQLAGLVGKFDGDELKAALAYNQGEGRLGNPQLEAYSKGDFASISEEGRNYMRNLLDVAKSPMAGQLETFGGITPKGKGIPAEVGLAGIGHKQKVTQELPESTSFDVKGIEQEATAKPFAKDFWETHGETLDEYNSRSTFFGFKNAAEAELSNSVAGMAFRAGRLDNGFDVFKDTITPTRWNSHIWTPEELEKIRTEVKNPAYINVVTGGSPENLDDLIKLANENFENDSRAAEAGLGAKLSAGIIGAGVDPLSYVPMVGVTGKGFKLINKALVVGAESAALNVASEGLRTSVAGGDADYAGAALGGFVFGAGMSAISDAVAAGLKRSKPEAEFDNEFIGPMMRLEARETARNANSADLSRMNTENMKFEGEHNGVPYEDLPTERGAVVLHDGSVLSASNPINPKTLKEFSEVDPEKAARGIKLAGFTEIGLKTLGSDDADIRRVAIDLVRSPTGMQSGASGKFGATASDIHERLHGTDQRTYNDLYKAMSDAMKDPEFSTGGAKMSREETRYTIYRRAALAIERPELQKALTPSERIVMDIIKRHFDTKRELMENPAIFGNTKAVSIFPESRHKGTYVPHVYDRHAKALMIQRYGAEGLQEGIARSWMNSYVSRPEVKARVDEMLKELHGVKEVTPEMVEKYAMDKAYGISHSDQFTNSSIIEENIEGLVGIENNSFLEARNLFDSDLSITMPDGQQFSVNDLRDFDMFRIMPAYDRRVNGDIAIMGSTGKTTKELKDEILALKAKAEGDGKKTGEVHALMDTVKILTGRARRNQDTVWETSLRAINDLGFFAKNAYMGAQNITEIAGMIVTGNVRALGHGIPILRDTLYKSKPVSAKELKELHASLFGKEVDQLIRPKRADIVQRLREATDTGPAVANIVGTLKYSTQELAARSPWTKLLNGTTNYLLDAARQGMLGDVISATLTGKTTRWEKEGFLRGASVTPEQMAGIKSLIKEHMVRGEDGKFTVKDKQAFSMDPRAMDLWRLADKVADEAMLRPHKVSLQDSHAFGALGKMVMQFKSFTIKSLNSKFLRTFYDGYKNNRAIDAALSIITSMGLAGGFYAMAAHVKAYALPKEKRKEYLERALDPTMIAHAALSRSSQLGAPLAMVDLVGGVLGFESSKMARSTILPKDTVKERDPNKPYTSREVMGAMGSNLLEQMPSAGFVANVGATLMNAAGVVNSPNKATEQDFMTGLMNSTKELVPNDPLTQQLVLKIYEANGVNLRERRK

[2] = molecular target: the molecule itself

B1: bacteriophage T7 ejection protein gp15 (internal virion protein), N-terminal 10x His-tagged, full-length (natural protein, UniProt P03725 1-747, looked up)
chain: MSKIESALQAAQPGLSRLRGGAGGMGYRAATTQAEQPRSSLLDTIGRFAKAGADMYTAKEQRARDLADERSNEIIRKLTPEQRREALNNGTLLYQDDPYAMEALRVKTGRNAAYLVDDDVMQKIKEGVFRTREEMEEYRHSRLQEGAKVYAEQFGIDPEDVDYQRGFNGDITERNISLYGAHDNFLSQQAQKGAIMNSRVELNGVLQDPDMLRRPDSADFFEKYIDNGLVTGAIPSDAQATQLISQAFSDASSRAGGADFLMRVGDKKVTLNGATTTYRELIGEEQWNALMVTAQRSQFETDAKLNEQYRLKINSALNQEDPRTAWEMLQGIKAELDKVQPDEQMTPQREWLISAQEQVQNQMNAWTKAQAKALDDSMKSMNKLDVIDKQFQKRINGEWVSTDFKDMPVNENTGEFKHSDMVNYANKKLAEIDSMDIPDGAKDAMKLKYLQADSKDGAFRTAIGTMVTDAGQEWSAAVINGKLPERTPAMDALRRIRNADPQLIAALYPDQAELFLTMDMMDKQGIDPQVILDADRLTVKRSKEQRFEDDKAFESALNASKAPEIARMPASLRESARKIYDSVKYRSGNESMAMEQMTKFLKESTYTFTGDDVDGDTVGVIPKNMMQVNSDPKSWEQGRDILEEARKGIIASNPWITNKQLTMYSQGDSIYLMDTTGQVRVRYDKELLSKVWSENQKKLEEKAREKALADVNKRAPIVAATKAREAAAKRVREKRKQTPKFIYGRKE
stoichiometry N [1]: 1 gp15:gp16 (6:6) | stoichiometry N [2]: 6
